In publication doi:10.1101/779520:
Read-outs that look alike come from different tables or passages of the source.

B1: calbindin-D28k (natural protein)
chain: MAESHLQSSLITASQFFEIWLHFDADGSGYLEGKELQNLIQELLQARKKAGLELSPEMKSFVDQYGQRDDGKIGIVELAHVLPTEENFLLLFRCQQLKSCEEFMKTWRKYDTDHSGFIETEELKNFLKDLLEKANKTVDDTKLAEYTDLMLKLFDSNNDGKLELTEMARLLPVQENFLLKFQGIKMCGKEFNKAFELYDQDGNGYIDENELDALLKDLCEKNKQELDINNITTYKKNIMALSDGGKLYRTDLALILSAGDN

What was measured:
[1] = target: otoferlin (mouse (endogenous in inner hair cells)); test: proximity ligation
[2] = target: otoferlin (mouse (endogenous in inner hair cells)); test: proximity ligation; remark: listed apart in the source

Chain of otoferlin (mouse (endogenous in inner hair cells)) (Q9ESF1 whole entry): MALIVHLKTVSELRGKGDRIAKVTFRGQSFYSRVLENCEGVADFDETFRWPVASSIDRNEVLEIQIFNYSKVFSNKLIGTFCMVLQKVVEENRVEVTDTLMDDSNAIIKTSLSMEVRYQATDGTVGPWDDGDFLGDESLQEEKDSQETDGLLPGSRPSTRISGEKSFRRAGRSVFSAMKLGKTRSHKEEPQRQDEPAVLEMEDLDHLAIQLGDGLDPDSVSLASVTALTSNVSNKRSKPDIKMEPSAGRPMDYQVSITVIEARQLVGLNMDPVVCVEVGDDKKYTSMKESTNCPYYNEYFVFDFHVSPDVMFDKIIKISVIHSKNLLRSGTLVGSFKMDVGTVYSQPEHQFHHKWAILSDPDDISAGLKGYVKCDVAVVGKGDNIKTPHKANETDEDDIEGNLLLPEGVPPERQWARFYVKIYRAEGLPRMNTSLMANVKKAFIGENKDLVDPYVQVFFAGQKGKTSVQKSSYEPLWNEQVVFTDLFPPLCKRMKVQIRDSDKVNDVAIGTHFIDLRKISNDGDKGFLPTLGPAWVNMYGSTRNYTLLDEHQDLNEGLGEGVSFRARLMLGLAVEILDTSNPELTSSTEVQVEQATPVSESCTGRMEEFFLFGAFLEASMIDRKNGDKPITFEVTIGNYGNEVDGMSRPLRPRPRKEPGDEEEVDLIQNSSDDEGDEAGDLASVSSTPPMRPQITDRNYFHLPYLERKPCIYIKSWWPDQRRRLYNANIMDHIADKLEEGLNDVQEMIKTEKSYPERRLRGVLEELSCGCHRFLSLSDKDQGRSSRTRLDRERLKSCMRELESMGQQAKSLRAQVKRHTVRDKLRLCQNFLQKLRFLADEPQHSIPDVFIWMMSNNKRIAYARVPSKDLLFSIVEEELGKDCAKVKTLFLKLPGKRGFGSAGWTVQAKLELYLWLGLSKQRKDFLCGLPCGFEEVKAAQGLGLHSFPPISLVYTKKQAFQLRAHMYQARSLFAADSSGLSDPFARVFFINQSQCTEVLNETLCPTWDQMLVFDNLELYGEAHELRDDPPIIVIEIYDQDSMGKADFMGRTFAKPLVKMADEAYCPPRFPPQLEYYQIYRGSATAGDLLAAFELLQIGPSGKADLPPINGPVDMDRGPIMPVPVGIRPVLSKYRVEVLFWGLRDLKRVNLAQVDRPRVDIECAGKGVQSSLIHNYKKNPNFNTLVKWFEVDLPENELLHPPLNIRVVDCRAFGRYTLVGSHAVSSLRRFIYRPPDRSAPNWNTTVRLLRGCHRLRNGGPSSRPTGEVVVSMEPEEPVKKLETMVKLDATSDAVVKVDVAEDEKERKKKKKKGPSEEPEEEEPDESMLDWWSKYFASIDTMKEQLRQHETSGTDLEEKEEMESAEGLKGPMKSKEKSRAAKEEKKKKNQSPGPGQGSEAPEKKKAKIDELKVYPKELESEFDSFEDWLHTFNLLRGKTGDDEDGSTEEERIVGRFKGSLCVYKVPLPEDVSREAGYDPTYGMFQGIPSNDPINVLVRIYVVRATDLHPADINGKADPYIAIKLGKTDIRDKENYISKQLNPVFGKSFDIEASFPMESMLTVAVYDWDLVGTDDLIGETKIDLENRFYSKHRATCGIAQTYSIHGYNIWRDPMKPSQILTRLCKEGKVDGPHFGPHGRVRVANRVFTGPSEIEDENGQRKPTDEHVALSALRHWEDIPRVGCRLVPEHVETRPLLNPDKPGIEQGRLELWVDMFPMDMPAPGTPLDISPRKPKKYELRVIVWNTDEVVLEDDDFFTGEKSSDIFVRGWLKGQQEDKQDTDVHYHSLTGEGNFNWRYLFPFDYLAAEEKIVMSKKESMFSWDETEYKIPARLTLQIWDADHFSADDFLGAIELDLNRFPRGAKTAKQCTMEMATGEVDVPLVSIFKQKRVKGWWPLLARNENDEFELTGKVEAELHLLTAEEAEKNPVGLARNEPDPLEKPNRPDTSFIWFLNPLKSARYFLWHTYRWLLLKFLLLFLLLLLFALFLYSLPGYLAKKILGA

Molecule | PLA puncta fluorescence intensity per cell, % of rest, after 1-min stimulation [1] [%] | PLA puncta fluorescence intensity per cell, % of rest, PMA 5 min [1] [%] | PLA puncta fluorescence intensity per cell, % of rest, PMA 15 min [1] [%] | PLA puncta fluorescence intensity per cell, % of rest, PMA 5 min [2] [%] | PLA puncta fluorescence intensity per cell, % of rest, PMA 15 min [2] [%] | PLA puncta fluorescence intensity per cell, % of rest, after 1-min stimulation [2] [%]
protein kinase C α (from UniProt P20444 1-672) (enzyme) | 442 | – | – | – | – | –
myosin VI (from UniProt Q64331 1-1262) (natural protein) | 173 | 133 | 149 | – | – | –
B1 | – | – | – | 175 | 161 | 560
